B1: S009-F4-127.10 (antibody, human IgG1, kappa, V domains shown)
VH: EVQLQQSGPVLVKPGASVKMSCKASGYTFTDYYMNWVKQSHGKSPEWIGVINPYNDVISYNQKFKGKATLTVDKSSSTAYMELNSLTSEDSAVYYCANYGSSYYAMDYWGQGTSVTVSS
VL: DVVMTQTPLSLSVSLGDQASISCRSSQSLVHSNGNTYLQWSLQKPGQSPNLLIYKVSNRFSGVPDRFSGSGSGTDFTLKISRVEAEDLGVYFCSQTTHVPFTFGGGTKLEIRR
notes: Human-murine chimeric antibody, human IgG1/kappa constant regions
B2: S009-F5-9.16 (antibody, human IgG1, kappa, V domains shown)
VH: EVQLRQSGPVLVKPGASVKMSCKASGYTFTDYFMNWVKPSHGKSLEWIGVINPSNGVINYNQRFKGKATLTVDKSSSTAYMELNSLTSEDSAVYYCARSYDFAWFAYWGQGTLVTVSA
VL: DVLMTQTPLSLPVSLGDQASISCRSSQNIVHSNGNTYLEWYLQKPGQSPKLLIYTVSNRFSGVPDRFSGSGSGTDFTLKISRVEAEDLGVYYCFQGSHVPYTFGGGTKLEIKR
notes: as for B1
B3: S009-F4-94.15 (antibody, human IgG1, kappa, V domains shown)
VH: QVQLHQPGAELVRPGSSVKLSCKASGYTFTSYWVHWVQQRPRQGLEWIGNIDPSDSEIHYNQKFKDKATLTVDKSSSTAYIHLSRLTSEDSAIYYCVRGGVPWFAYWGQGTLVTVSA
VL: QIVLTQSPAIMSASPGEKVTLTCSASSSVSSTYLYWFQQKPGSSPKVWIYSTSNLASGVPARFSGSGSGTSYSLTISSMEAEDAASYFCHQWISYPYTFGGGTKLEIKR
notes: as for B1

Each binder was assayed against T1, human MSLN-R2-his protein (human, UniProt Q13421 391-486) (assay: ELISA, coated antigen; antibody 0.001 nM).
T1 construct: also called human MSLN-R2 protein; hMSLN-R2-his; not shown: His tag
T1 sequence (Q13421 other isoform, or with tags, fused parts or gaps): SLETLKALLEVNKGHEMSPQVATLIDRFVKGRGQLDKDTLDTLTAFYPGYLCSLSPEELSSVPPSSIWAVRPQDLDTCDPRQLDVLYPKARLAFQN

First: B1
Second: B2
The OD450 of the first is higher: 0.05 OD450 for the first, 0.04 OD450 for the second.

Binder B3 has an OD450 of 0.05 OD450.

These binders were tested against T1, human MSLN-R2-his protein (assay: ELISA, coated antigen; antibody 10 nM).
Protocol: (§1) The plate was sealed with a plastic film and incubated at 4° C. overnight. The next day, the plate was washed twice with PBST, and a blocking buffer [PBS+2% (w/w) BSA] was added for blocking at room temperature for 2 h. The blocking buffer was discarded, and a chimeric antibody or negative control antibody serially diluted from 100 nM was added at 50 μL/well. After incubation at 37° C. for 2 h, the plate was washed 3 times with PBST. […] After incubation at 37° C. for 2 h, the plate was washed 5 times with PBST. A TMB substrate was added at 50 μL/well for incubation at room temperature for 5-10 min, and then a stop solution (1.0 N HCl) was added at 50 μL/well.

B1 and B2 are the same in OD450: 0.06 OD450 for the first, 0.06 OD450 for the second.

Work on B3 yielded an OD450 of 0.06 OD450.

The binders below were run against T2, human MSLN-FL-his protein (human, UniProt Q13421 296-580) (assay: ELISA, coated antigen; antibody 0.01 nM).
T2 construct: also called human MSLN full-length protein; hMSLN-FL-his; not shown: His tag
T2 sequence (Q13421 other isoform, or with tags, fused parts or gaps): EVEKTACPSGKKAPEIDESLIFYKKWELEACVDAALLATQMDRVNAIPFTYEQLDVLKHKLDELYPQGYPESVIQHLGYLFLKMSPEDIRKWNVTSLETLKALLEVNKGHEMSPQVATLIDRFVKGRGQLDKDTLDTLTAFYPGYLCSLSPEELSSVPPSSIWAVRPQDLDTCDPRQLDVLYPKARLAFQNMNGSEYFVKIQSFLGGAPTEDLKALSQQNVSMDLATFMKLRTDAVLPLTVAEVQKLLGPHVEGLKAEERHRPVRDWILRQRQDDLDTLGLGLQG

Going from B1 to B2, the OD450 falls from 0.06 OD450 to 0.04 OD450.

B3 showed an OD450 of 0.57 OD450.

The binders below were run against T1, human MSLN-R2-his protein (assay: ELISA, coated antigen; antibody 100 nM).
Protocol: as §1

First: B1
Second: B2
The OD450 of the first is lower: 0.09 OD450 for the first, 0.13 OD450 for the second.

For B3, the OD450 was 0.07 OD450.

These binders were tested against T3, human MSLN-R1-his protein (human, UniProt Q13421 296-390) (assay: ELISA, coated antigen; antibody 0.001 nM).
T3 construct: also called human MSLN-R1 protein; hMSLN-R1-his; not shown: His tag
T3 sequence (Q13421 other isoform, or with tags, fused parts or gaps): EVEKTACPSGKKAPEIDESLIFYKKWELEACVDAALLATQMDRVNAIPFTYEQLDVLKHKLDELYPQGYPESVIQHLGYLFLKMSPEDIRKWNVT

Compared with B1, B2 is lower in OD450: 0.05 OD450 for the first, 0.04 OD450 for the second.

In the case of B3, the OD450 is reported as 0.05 OD450.

Each binder was assayed against T1, human MSLN-R2-his protein (assay: ELISA, coated antigen; antibody 1 nM).
Protocol: as §1

Compared with B1, B2 is lower in OD450: 0.05 OD450 for the first, 0.04 OD450 for the second.

B3 showed an OD450 of 0.05 OD450.

The binders below were run against T3, human MSLN-R1-his protein (assay: ELISA, coated antigen; antibody 0.01 nM).
Protocol: as §1

Going from B1 to B2, the OD450 falls from 0.05 OD450 to 0.04 OD450.

Work on B3 yielded an OD450 of 0.05 OD450.

The binders below were run against T3, human MSLN-R1-his protein (assay: ELISA, coated antigen; no antibody (blank, column 'none')).
Protocol: as §1

First: B1
Second: B2
The OD450 of the first is higher: 0.06 OD450 for the first, 0.04 OD450 for the second.

For B3, the OD450 was 0.07 OD450.

The binders below were run against T1, human MSLN-R2-his protein (assay: ELISA, coated antigen; antibody 0.1 nM).
Protocol: as §1

Compared with B1, B2 is lower in OD450: 0.05 OD450 for the first, 0.04 OD450 for the second.

B3 showed an OD450 of 0.05 OD450.

What follows are binders tested against T3, human MSLN-R1-his protein (assay: ELISA, coated antigen; antibody 100 nM).
Protocol: as §1

Compared with B1, B2 is higher in OD450: 0.08 OD450 for the first, 0.09 OD450 for the second.

B3 showed an OD450 of 0.07 OD450.

The binders below were run against T3, human MSLN-R1-his protein (assay: ELISA, coated antigen; antibody 10 nM).
Protocol: as §1

Compared with B1, B2 is lower in OD450: 0.06 OD450 for the first, 0.05 OD450 for the second.

For B3, the OD450 was 0.06 OD450.

Each binder was assayed against T2, human MSLN-FL-his protein (assay: ELISA, coated antigen; antibody 0.0001 nM).
Protocol: as §1

Going from B1 to B2, the OD450 falls from 0.06 OD450 to 0.04 OD450.

With B3 the OD450 was 0.06 OD450.

These binders were tested against T2, human MSLN-FL-his protein (assay: ELISA, coated antigen; antibody 0.1 nM).
Protocol: as §1

First: B1
Second: B2
The OD450 of the first is higher: 0.06 OD450 for the first, 0.04 OD450 for the second.

Work on B3 yielded an OD450 of 1.57 OD450.

Each binder was assayed against T2, human MSLN-FL-his protein (assay: ELISA, coated antigen; antibody 1 nM).
Protocol: as §1

B1 and B2 are the same in OD450: 0.06 OD450 for the first, 0.06 OD450 for the second.

In the case of B3, the OD450 is reported as 1.79 OD450.

These binders were tested against T2, human MSLN-FL-his protein (assay: ELISA, coated antigen; antibody 100 nM).
Protocol: as §1

Going from B1 to B2, the OD450 rises from 0.21 OD450 to 1.12 OD450.

B3 gave an OD450 of 1.9 OD450.

What follows are binders tested against T2, human MSLN-FL-his protein (assay: ELISA, coated antigen; no antibody (blank, column 'none')).
Protocol: as §1

First: B1
Second: B2
The OD450 of the first is higher: 0.06 OD450 for the first, 0.05 OD450 for the second.

Binder B3 has an OD450 of 0.06 OD450.

These binders were tested against T2, human MSLN-FL-his protein (assay: ELISA, coated antigen; antibody 0.001 nM).
Protocol: as §1

Compared with B1, B2 is lower in OD450: 0.06 OD450 for the first, 0.04 OD450 for the second.

Binder B3 has an OD450 of 0.13 OD450.

These binders were tested against T3, human MSLN-R1-his protein (assay: ELISA, coated antigen; antibody 1 nM).
Protocol: as §1

Going from B1 to B2, the OD450 falls from 0.05 OD450 to 0.04 OD450.

B3 gave an OD450 of 0.05 OD450.

These binders were tested against T1, human MSLN-R2-his protein (assay: ELISA, coated antigen; antibody 0.01 nM).
Protocol: as §1

First: B1
Second: B2
The OD450 of the first is higher: 0.05 OD450 for the first, 0.04 OD450 for the second.

With B3 the OD450 was 0.05 OD450.

These binders were tested against T3, human MSLN-R1-his protein (assay: ELISA, coated antigen; antibody 0.0001 nM).
Protocol: as §1

B1 and B2 are the same in OD450: 0.05 OD450 for the first, 0.05 OD450 for the second.

Binder B3 has an OD450 of 0.05 OD450.

These binders were tested against T1, human MSLN-R2-his protein (assay: ELISA, coated antigen; no antibody (blank, column 'none')).
Protocol: as §1

Compared with B1, B2 is lower in OD450: 0.06 OD450 for the first, 0.05 OD450 for the second.

B3 showed an OD450 of 0.07 OD450.

Each binder was assayed against T1, human MSLN-R2-his protein (assay: ELISA, coated antigen; antibody 0.0001 nM).
Protocol: as §1

Compared with B1, B2 is lower in OD450: 0.06 OD450 for the first, 0.04 OD450 for the second.

For B3, the OD450 was 0.06 OD450.

These binders were tested against T2, human MSLN-FL-his protein (assay: ELISA, coated antigen; antibody 10 nM).
Protocol: as §1

First: B1
Second: B2
The OD450 of the first is lower: 0.09 OD450 for the first, 0.19 OD450 for the second.

Work on B3 yielded an OD450 of 1.84 OD450.

What follows are binders tested against T3, human MSLN-R1-his protein (assay: ELISA, coated antigen; antibody 0.1 nM).
Protocol: as §1

Going from B1 to B2, the OD450 falls from 0.05 OD450 to 0.04 OD450.

B3 showed an OD450 of 0.05 OD450.

From US20250250357A1 (NANJING ZAIMING PHARMACEUTICAL, published 2025)
